Results taken from patent publication US20170016915A1, “SCREENING TARGETS AND COMPOSITIONS AND METHODS FOR TREATMENT OF CILIOPATHY DISORDERS” (Duke University, priority 2014, published 2017).
Where a SMILES comes first, the peptide text is derived from it. The star is where a group is joined. Cbz = O=C(OCc1ccccc1)*

B1: GFP-tagged regulatory proteasome non-ATPase subunit 10 (RPN10) (other, UniProt P55036 1-377, looked up)
chain: MVLESTMVCVDNSEYMRNGDFLPTRLQAQQDAVNIVCHSKTRSNPENNVGLITLANDCEVLTTLTPDTGRILSKLHTVQPKGKITFCTGIRVAHLALKHRQGKNHKMRIIAFVGSPVEDNEKDLVKLAKRLKKEKVNVDIINFGEEEVNTEKLTAFVNTLNGKDGTGSHLVTVPPGPSLADALISSPILAGEGGAMLGLGASDFEFGVDPSADPELALALRVSMEEQRQRQEEEARRAAAASAAEAGIATTGTEDSDDALLKMTISQQEFGRTGLPDLSSMTEEEQIAYAMQMSLQGAEFGQAESADIDASSAMDTSEPAKEEDDYDVMQDPEFLQSVLENLPGVDPNNEAIRNAMGSLASQATKDGKKDKKEEDKK
notes: Transfected expression construct; also called GFP-tagged RPN10; not shown: GFP tag
B2: GFP-tagged regulatory proteasome non-ATPase subunit 13 (RPN13) (other, UniProt Q16186 1-407, looked up)
chain: MTTSGALFPSLVPGSRGASNKYLVEFRAGKMSLKGTTVTPDKRKGLVYIQQTDDSLIHFCWKDRTSGNVEDDLIIFPDDCEFKRVPQCPSGRVYVLKFKAGSKRLFFWMQEPKTDQDEEHCRKVNEYLNNPPMPGALGASGSSGHELSALGGEGGLQSLLGNMSHSQLMQLIGPAGLGGLGGLGALTGPGLASLLGSSGPPGSSSSSSSRSQSAAVTPSSTTSSTRATPAPSAPAAASATSPSPAPSSGNGASTAASPTQPIQLSDLQSILATMNVPAGPAGGQQVDLASVLTPEIMAPILANADVQERLLPYLPSGESLPQTADEIQNTLTSPQFQQALGMFSAALASGQLGPLMCQFGLPAEAVEAANKGDVEAFAKAMQNNAKPEQKEGDTKDKKDEEEDMSLD
notes: Transfected construct; not shown: GFP tag
B4: BBS5 (other, UniProt Q8N3I7 1-341, looked up)
chain: MSVLDALWEDRDVRFDLSAQQMKTRPGEVLIDCLDSIEDTKGNNGDRGRLLVTNLRILWHSLALSRVNVSVGYNCILNITTRTANSKLRGQTEALYILTKCNSTRFEFIFTNLVPGSPRLFTSVMAVHRAYETSKMYRDFKLRSALIQNKQLRLLPQEHVYDKINGVWNLSSDQGNLGTFFITNVRIVWHANMNDSFNVSIPYLQIRSIKIRDSKFGLALVIESSQQSGGYVLGFKIDPVEKLQESVKEINSLHKVYSASPIFGVDYEMEEKPQPLEALTVEQIQDDVEIDSDGHTDAFVAYFADGNKQQDREPVFSEELGLAIEKLKDGFTLQGLWEVMS
notes: Tested in the same co-IP series as the Myc- or HA-tagged BBS proteins

Tests used:
[1] = system: her4 expression (Notch target) in bbs4 morphant zebrafish embryos; assay: Whole-mount RNA in situ hybridization of her4 in morphant zebrafish; format: in vivo; conditions: bbs4 morphants, coinjection, 4.5 dpf
Experimental: (§1) Morpholinos against bbs1 ([NT] ID NO: 13), bbs4 ([NT] ID NO: 14), and ofd1 ([NT] ID NO: 15) were purchased from Gene Tools, LLC. Human RPN10, RPN13, and RPT6 mRNA were in vitro transcribed with a mMESSAGE mMACHINE SP6 Kit (Ambion). SFN was dissolved in DMSO (Sigma-Aldrich) at a stock concentration of 1 M and further diluted in water to 10 mM. The morpholino and mRNA or SFN were mixed, and a volume of 0.5 nl was microinjected. Zebrafish embryos were fixed overnight in 4% PFA at 4° C. Residual pigment was removed by bleaching with 3% H2O2/0.5% KOH.

[2] = system: bbs4, bbs1 and ofd1 morphant zebrafish embryos; assay: Convergent extension (CE) and somite defects in morphant zebrafish embryos, coinjection; format: in vivo; conditions: coinjection with bbs4 morpholino
Experimental: as §1, with “microinjected.” for “microinjected. Zebrafish embryos were fixed overnight in 4% PFA at 4° C. Residual pigment was removed by bleaching with 3% H2O2/0.5% KOH.”

[3] = system: JAG1; assay: Immunoblot of GFP-JAG1 in BBS4-overexpressing cells treated with proteasome inhibitor; format: cell-based; conditions: proteasome inhibitor 5 hours
Experimental: (§3) Transfected cells and mouse tissues were lysed in modified RIPA buffer [150 mM sodium chloride, 50 mM Tris-HCl, pH7.4, 1% nonidet P-40, 0.1% sodium deoxycholate, 1 mM EDTA] with 1× proteasome inhibitor (Roche) and centrifuged at 4° C. for 15 minutes. […] Total protein in each sample was separated by SDS-PAGE on 4% to 15% Mini-PROTEAN TGX Precast Gel (Bio-Rad) with a Spectra Multicolor Broad Range Protein Ladder (Fermentas) and transferred to an Immun-Blot PVDF Membrane (Bio-Rad). […] Densitometric analysis was performed with Image Lab (Bio-Rad), Quantity One (Bio-Rad), or ImageJ 1.44p (NIH) software.
(§4) Drug treatment was carried out at a final concentration of 10 μM SFN (Sigma-Aldrich) for 6 to 24 hours, 30 μm N-carbobenzoxyl- ? -leucinyl- ? -leucinyl- ? -norleucinal (MG132; Calbiochem) for 5 hours, 20 μM lactacystin (EMD Bioscience) for 5 hours, and 50 ng/ml TNF-α (Sigma-Aldrich) for 12 hours.

[4] = system: NICD; assay: Immunoblot of NICD in BBS4-overexpressing cells treated with proteasome inhibitors; format: cell-based; conditions: MG132 30 μM 5 hours, lactacystin 20 μM 5 hours
Experimental: as §3, §4

[5] = target: T1, BBS10 (UniProt Q8TAM1 1-723, limits assumed); assay: co-immunoprecipitation, 1% Triton X-100
T1 construct: Tested in the same co-IP series as the Myc- or HA-tagged BBS proteins
T1 sequence (looked up): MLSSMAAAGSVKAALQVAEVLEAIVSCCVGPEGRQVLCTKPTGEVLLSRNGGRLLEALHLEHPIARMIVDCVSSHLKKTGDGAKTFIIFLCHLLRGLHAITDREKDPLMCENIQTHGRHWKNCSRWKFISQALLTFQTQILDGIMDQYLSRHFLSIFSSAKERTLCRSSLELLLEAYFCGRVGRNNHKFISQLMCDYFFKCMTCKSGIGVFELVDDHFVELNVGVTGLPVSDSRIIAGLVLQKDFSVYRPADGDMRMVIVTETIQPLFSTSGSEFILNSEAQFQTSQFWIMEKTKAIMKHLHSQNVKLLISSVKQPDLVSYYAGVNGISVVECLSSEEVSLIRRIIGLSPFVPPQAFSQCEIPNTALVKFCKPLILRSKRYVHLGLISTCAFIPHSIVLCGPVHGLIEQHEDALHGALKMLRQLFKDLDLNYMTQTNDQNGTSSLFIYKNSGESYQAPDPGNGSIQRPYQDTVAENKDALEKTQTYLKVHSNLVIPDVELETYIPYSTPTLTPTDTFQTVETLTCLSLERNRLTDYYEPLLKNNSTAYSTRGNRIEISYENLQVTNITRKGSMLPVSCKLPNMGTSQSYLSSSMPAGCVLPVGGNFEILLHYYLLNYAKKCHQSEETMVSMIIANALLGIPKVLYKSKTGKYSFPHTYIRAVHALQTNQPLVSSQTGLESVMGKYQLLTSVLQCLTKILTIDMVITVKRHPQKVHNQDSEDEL
Experimental: (§2) First, an unbiased mass spectrometry screen was conducted to identify putative OFD1-interacting proteins. This experiment uncovered a spectrum of proteasomal subunits including regulatory proteasome ATPase subunit 6 (RPT6), a finding confirmed by semiendogenous coimmunoprecipitation (FIG. 4A). […] To test the physiological relevance of a BBS-proteasome interactome, it was determined that BBS1 and RPN10 interacted at endogenous levels in protein lysates isolated from C57BL/6 mouse testes (FIG. 4A). To probe the relevance of these interactions, the question was asked whether loss of OFD1 or BBS4 alters the composition of the proteasome with respect to its subunits. Using a stable cell line expressing tagged regulatory proteasome non-ATPase subunit 11 (RPN11) (37), OFD1 was suppressed, 26S proteasome complexes were purified, and a robust reduction was observed (60%±8%) of 26S-bound regulatory proteasome ATPase subunit 2 (RPT2) in OFD1-depleted cells in comparison with that in control, while total RPT2 protein abundance was not affected by OFD1 depletion (FIG. 4B).

[6] = target: B4; assay: co-immunoprecipitation, 1% Triton X-100
Experimental: as §2

[7] = target: B1; assay: co-immunoprecipitation, 1% Triton X-100
Experimental: as §2

[8] = target: T2, GFP-tagged regulatory proteasome ATPase subunit 6 (RPT6) (UniProt P62195 1-406); assay: co-immunoprecipitation, 1% Triton X-100
T2 construct: Transfected construct; not shown: GFP tag
T2 sequence (P62195 whole entry): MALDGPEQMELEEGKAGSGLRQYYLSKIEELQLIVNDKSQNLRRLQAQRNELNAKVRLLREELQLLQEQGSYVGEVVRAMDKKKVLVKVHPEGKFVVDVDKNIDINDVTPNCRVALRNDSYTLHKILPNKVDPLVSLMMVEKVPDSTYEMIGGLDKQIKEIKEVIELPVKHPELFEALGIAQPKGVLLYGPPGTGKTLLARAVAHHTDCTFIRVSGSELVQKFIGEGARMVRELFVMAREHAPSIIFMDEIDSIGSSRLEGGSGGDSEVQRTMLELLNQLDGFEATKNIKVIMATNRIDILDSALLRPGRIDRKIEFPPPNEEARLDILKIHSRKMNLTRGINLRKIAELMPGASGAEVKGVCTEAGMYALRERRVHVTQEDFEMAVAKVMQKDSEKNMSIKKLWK
Experimental: as §2

[9] = target: B2; assay: co-immunoprecipitation, 1% Triton X-100
Experimental: as §2

CC1(O)CCOC(=O)C1 (racemic) [MVA, (±)-β-hydroxy-β-methyl-δ-valerolactone]
ectopic expression of her4 in neural structures [1]: reduced | bbs4 morphant zebrafish with CE defects ([2]; 9±1 ss, 47.8% without MVA): 11.4% | bbs4 morphants with CE and somitic defects ([2]; blind scoring at 9±1 ss): rescues

CC(C)C[C@@H](C=O)NC(=O)[C@H](CC(C)C)NC(=O)[C@H](CC(C)C)NC(=O)OCc1ccccc1 [MG132] (Cbz-Leu-Leu-Leu-aldehyde)
JAG1 levels, of basal levels [3]: 99%±38% | NICD protein levels, of basal levels [4]: 93%

CC(=O)N[C@@H](CSC(=O)[C@]1([C@@H](O)C(C)C)NC(=O)[C@H](C)[C@@H]1O)C(=O)O [lactacystin]
NICD protein levels, of basal levels [4]: 138%

B1
binding result [5]: no binding

B2
binding result [5]: no binding

B3: GFP-tagged PSMB1 (proteasome subunit beta type 1, subunit in the 20S particle) (other, UniProt P20618 1-241, looked up)
chain: MLSSTAMYSAPGRDLGMEPHRAAGPLQLRFSPYVFNGGTILAIAGEDFAIVASDTRLSEGFSIHTRDSPKCYKLTDKTVIGCSGFHGDCLTLTKIIEARLKMYKHSNNKAMTTGAIAAMLSTILYSRRFFPYYVYNIIGGLDEEGKGAVYSFDPVGSYQRDSFKAGGSASAMLQPLLDNQVGFKNMQNVEHVPLSLDRAMRLVKDVFISAAERDVYTGDALRICIVTKEGIREETVSLRKD
notes: as for B2
binding result [6]: no binding | binding result [5]: no binding

B4
binding result [7]: no binding | binding result [8]: no binding | binding result [9]: no binding
